Assay results taken from article PMC12232321.

How the values were obtained:
[1] = molecular target: LOV2-C250A single domain of Phot1; assay: crystal structure; LOV2-C250A crystallized in the dark (FMNox)
[2] = molecular target: LOV1-C57M-SL-LOV2-C250A fusion protein (short linker) (UniProt Q8LPD9); assay: crystal structure; fusion protein pre-irradiated with blue light and reoxidised (FMN^·-Met/FMNox); 20% PEG 3350, 0.1 M BIS-TRIS pH 6.5, 0.1 M ammonium sulfate, 5 mg/mL

Row | stoichiometry N [1] | stoichiometry N [2] | Substance
1 | 2 | – | LOV2-C250A single domain of Phot1 (domain or fragment)
2 | – | 2 | LOV1-C57M-SL-LOV2-C250A fusion protein (short linker) (from UniProt Q8LPD9 17-125)
